Assay results published in the supplement of paper PMC10724198.
± gives the standard deviation of the averaged measurements.

What was measured:
[1] = test system: Saccharomyces cerevisiae; assay: protein stability index of tFT-peptide fusion (C-terminal peptide) (PSI (0-1 scale)); higher = more stable (slower turnover)
Method: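 MPS profiling in S. cerevisiae of the tFT-X12 degron library: putative degron peptides plus stable controls, 12 aa, fused to the C-terminus of a sfGFP-mCherry timer. Cells are FACS-sorted into 8 mCherry/sfGFP bins and deep-sequenced. PSI runs from 0 (unstable) to 1 (stable). Backgrounds are wild type, das1Δ and doa10Δ at 30 °C, and wild type, das1Δ, cdc34-1 and cdc53-1 at 37 °C; 2-3 technical replicates each.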

[2] = test system: Saccharomyces cerevisiae; assay: as above; conditions: genetic background: wild type; temperature: 30 C
[3] = genetic background: cdc34-1, temperature: 37 C
[4] = genetic background: cdc53-1, temperature: 37 C
[5] = genetic background: das1 deletion, temperature: 30 C
[6] = genetic background: das1 deletion, temperature: 37 C
[7] = genetic background: doa10 deletion, temperature: 30 C
[8] = genetic background: wild type, temperature: 30 C
[9] = genetic background: wild type, temperature: 37 C
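Note: PSI is a weighted mean of sequencing reads over stability bins, variants kept only with over 10 reads, mCherry proximal and sfGFP distal, peptide attached via GGGS linker.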

Row | Sequence | protein stability index [1, 3] | protein stability index [1, 4] | protein stability index [1, 5] | protein stability index [1, 6] | protein stability index [1, 7] | protein stability index [1, 8] | protein stability index [1, 9] | protein stability index [2]
1 | YVSSCLLWLCFV | 0.484 ± 0.043 | 0.551 ± 0.018 | 0.421 ± 0.023 | 0.5591 ± 0.0006 | 0.28 ± 0.0085 | 0.287 ± 0.023 | 0.457 ± 0.011 | 0.376 ± 0.034
2 | YCDPSLIWLYLM | 0.57 ± 0.012 | 0.714 ± 0.018 | 0.61 ± 0.021 | 0.727 ± 0.0077 | 0.1768 ± 0.0011 | 0.18 ± 0.012 | 0.275 ± 0.031 | 0.249 ± 0.02
3 | GLNKGKYIKLYT | 0.68 ± 0.021 | 0.756 ± 0.017 | 0.635 ± 0.035 | 0.733 ± 0.08 | 0.4605 ± 0.0033 | 0.486 ± 0.0097 | 0.641 ± 0.034 | 0.558 ± 0.089
4 | FLVFRPPALFLR | 0.0932 ± 0.018 | 0.0985 ± 0.0088 | 0.198 ± 0.024 | 0.268 ± 0.013 | 0.611 ± 0.01 | 0.22 ± 0.017 | 0.219 ± 0.0054 | 0.218 ± 0.18
5 | CSLFFFRLIFTL | 0.101 ± 0.025 | 0.185 ± 0.026 | 0.219 ± 0.032 | 0.339 ± 0.0091 | 0.0783 ± 0.0034 | 0.0603 ± 0.017 | 0.0702 ± 0.01 | 0.0826 ± 0.014
6 | ISTRLALCACVC | 0.184 ± 0.027 | 0.18 ± 0.0098 | 0.245 ± 0.019 | 0.3009 ± 0.0026 | 0.1999 ± 0.00074 | 0.208 ± 0.017 | 0.245 ± 0.0031 | 0.3273 ± 0.0032
7 | GFVCFIHLFLCF | 0.3496 ± 0.0027 | 0.365 ± 0.011 | 0.334 ± 0.027 | 0.425 ± 0.027 | 0.471 ± 0.045 | 0.316 ± 0.0089 | 0.367 ± 0.0056 | 0.407 ± 0.04
8 | GHFILFWVFCFM | 0.316 ± 0.058 | 0.39 ± 0.014 | 0.31 ± 0.046 | 0.453 ± 0.031 | 0.254 ± 0.0053 | 0.303 ± 0.023 | 0.409 ± 0.024 | 0.369 ± 0.024
9 | GGVVLVVVFCCV | 0.165 ± 0.0053 | 0.34 ± 0.02 | 0.217 ± 0.025 | 0.352 ± 0.01 | 0.18 ± 0.015 | 0.204 ± 0.029 | 0.3395 ± 0.00053 | 0.42 ± 0.13
10 | RWRYHAYVITIL | 0.334 ± 0.02 | 0.4158 ± 0.0037 | 0.392 ± 0.02 | 0.506 ± 0.0054 | 0.118 ± 0.0098 | 0.0812 ± 0.025 | 0.0987 ± 0.0088 | 0.138 ± 0.045
11 | LFFFLVWSLSVF | 0.0262 ± 0.0035 | 0.0512 ± 0.0066 | 0.0353 ± 0.011 | 0.0635 ± 0.02 | 0.0187 ± 0.0092 | 0.0205 ± 0.0042 | 0.0395 ± 0.013 | 0.0314 ± 0.029
12 | CFFPFLCFVVGA | 0.482 ± 0.021 | 0.492 ± 0.023 | 0.358 ± 0.025 | 0.514 ± 0.0085 | 0.3205 ± 0.0017 | 0.346 ± 0.013 | 0.49 ± 0.0059 | 0.445 ± 0.017
13 | TLLAFLIYLCFL | 0.496 ± 0.023 | 0.515 ± 0.061 | 0.403 ± 0.023 | 0.546 ± 0.0095 | 0.402 ± 0.017 | 0.365 ± 0.028 | 0.499 ± 0.043 | 0.416 ± 0.012
14 | SQVILFFLSLCR | 0.607 ± 0.024 | 0.654 ± 0.011 | 0.494 ± 0.024 | 0.619 ± 0.0082 | 0.485 ± 0.011 | 0.4977 ± 0.0029 | 0.61 ± 0.022 | 0.552 ± 0.08
15 | LCSLSIFVLFSC | 0.192 ± 0.015 | 0.309 ± 0.027 | 0.209 ± 0.036 | 0.381 ± 0.0064 | 0.141 ± 0.0032 | 0.147 ± 0.017 | 0.272 ± 0.018 | 0.25 ± 0.005
16 | IKCVPLVWRLTV | 0.457 ± 0.0073 | 0.594 ± 0.045 | 0.534 ± 0.038 | 0.6384 ± 0.0023 | 0.109 ± 0.022 | 0.123 ± 0.02 | 0.1955 ± 0.001 | 0.272 ± 0.031
17 | ESRRGILFIYIN | 0.325 ± 0.049 | 0.601 ± 0.027 | 0.475 ± 0.025 | 0.647 ± 0.038 | 0.0808 ± 0.028 | 0.0867 ± 0.0055 | 0.0749 ± 0.024 | 0.13 ± 0.005
18 | LAGVVWVVWCVG | 0.17 ± 0.013 | 0.21 ± 0.0091 | 0.195 ± 0.031 | 0.385 ± 0.0088 | 0.1814 ± 0.00077 | 0.198 ± 0.03 | 0.367 ± 0.039 | 0.314 ± 0.06
19 | WYMYVRMASFLV | 0.534 ± 0.058 | 0.634 ± 0.05 | 0.489 ± 0.026 | 0.603 ± 0.018 | 0.302 ± 0.0084 | 0.287 ± 0.027 | 0.44 ± 0.0072 | 0.375 ± 0.026
20 | LPWLLLISFSYR | 0.149 ± 0.017 | 0.25 ± 0.037 | 0.202 ± 0.029 | 0.38 ± 0.0051 | 0.171 ± 0.0091 | 0.188 ± 0.029 | 0.378 ± 0.061 | 0.286
